# Assay results reported in the supplement of paper PMC10724198.
# ± gives the standard deviation of the averaged measurements.
# System: Saccharomyces cerevisiae
# Assay: protein stability index of tFT-peptide fusion (C-terminal peptide) (PSI (0-1 scale)); higher = more stable (slower turnover)
# Settings: genetic background: wild type; temperature: 30 C
# 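Further: PSI is a weighted mean of sequencing reads over stability bins, variants kept only with over 10 reads, mCherry proximal and sfGFP distal, peptide attached via GGGS linker.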
row,Sequence,protein stability index
1,KKKTKTQTGKKS,0.744 ± 0.016
2,PPSPPFDFSPQN,0.716 ± 0.014
3,QKERENKHTEIE,0.645 ± 0.21
4,LPPRPPPPPPPA,0.62606 ± 2.4e-05
5,SSGRRFVVVVQG,0.572 ± 0.026
6,LPPCSPLIFYFH,0.636 ± 0.032
7,NRPKVNSQERGY,0.666 ± 0.02
8,SGVILWSAWRDG,0.7029 ± 0.0014
9,RHLFGTGIMPER,0.683 ± 0.12
10,LHSRLPPCRRHV,0.674 ± 0.021
11,EIGWEGLEGRGG,0.756 ± 0.11
12,SGVRAAGEGDSE,0.735 ± 0.033
13,CCFHRLRYSRAV,0.647 ± 0.02
14,RGKREEQVRGGD,0.622 ± 0.035
15,SFTSSFPGSSPS,0.703 ± 0.058
16,AGVVCGGGWWWA,0.772 ± 0.12
17,SVYTTGHTHTGR,0.626 ± 0.17
18,WLDDCVRVGMRI,0.6722 ± 0.0033
19,GKALPALPSGLL,0.657 ± 0.025
20,GVYRGNNGSPVK,0.689 ± 0.0086
21,RFTCYLCLKGLL,0.681 ± 0.052
22,PPPKAPHSSPNL,0.675 ± 0.072
23,PPPPPRPPLSPP,0.725 ± 0.03
24,STPDRFVSRGRQ,0.702 ± 0.043
25,GQSSYFRRFRVG,0.6185 ± 0.0031
26,PTPLPRISLTSV,0.667 ± 0.025

row,Sequence,protein stability index
1,VRDRVLFVARGG,0.6996 ± 0.00075
2,GCEGGGRVGSWT,0.742 ± 0.028
3,GGAGSFVEKEID,0.69 ± 0.044
4,LLDTSTVTCFER,0.741 ± 0.01
5,ALPPPPPPSPLL,0.642 ± 0.035
6,VLSSSTLFFLVF,0.584 ± 0.024
7,LSGCASGYRPPW,0.683 ± 0.047
8,PPPPPLPPLPTP,0.693 ± 0.022
9,RVRRAGSGWCGK,0.729 ± 0.0073
10,HPRRLRPAHTPP,0.725 ± 0.0075
11,SPSCFFIFALPC,0.605 ± 0.037
12,PPPFPLLPRYGF,0.657 ± 0.066
13,GPPHSGPIYLFP,0.6748 ± 0.0043
14,TLTVRASLHLEP,0.636 ± 0.025
15,RINGPLHRLSVA,0.657 ± 0.015
16,VSIMRLGSCRQD,0.702 ± 0.033
17,LPPPSLPPLPLF,0.728 ± 0.065
18,PARPSSLQLFPY,0.747 ± 0.0078
19,WGGYLISLNLYN,0.561 ± 0.025
20,GGGRWGAGVKGV,0.645 ± 0.028
21,LCRLTNVCGAVV,0.6543 ± 0.004
22,GKQKKKHRRNLK,0.743 ± 0.12
23,PTGRGRSAYLVL,0.6875 ± 0.0058
24,RFPSRLLVPPPP,0.698 ± 0.077
25,GAFKSRAGGGSG,0.621 ± 0.093
26,VASVWGVGFVAS,0.694 ± 0.058

row,Sequence,protein stability index
1,GRCLWGRVGSVM,0.707 ± 0.018
2,KNITIKKSKIKD,0.61 ± 0.055
3,PSLLSSPPPPLL,0.737 ± 0.073
4,GGALFVCSSVGR,0.681 ± 0.033
5,SGGRCVGVGGVV,0.658 ± 0.028
6,TRCSIPSSLSLM,0.677 ± 0.016
7,GRCLGREGVCGL,0.673 ± 0.018
8,LRKAKRDKRIKI,0.759 ± 0.075
9,SSLDTPSFDSSL,0.675 ± 0.018
10,ARLHIPSLLPAS,0.6798 ± 0.0057
11,RPAGGPRGGEGV,0.648 ± 0.058
12,TASRSSRADERA,0.591 ± 0.033
13,PLSLPPRPFLHH,0.735 ± 0.017
14,CPGLCVFFSPDY,0.661 ± 0.044
15,PPASRPPPPTFL,0.699 ± 0.047
16,FGWFDIKDSTNS,0.7177 ± 0.0048
17,LCKGCEGGVMQR,0.666 ± 0.037
18,KKKQKKERKKTK,0.649 ± 0.042
19,VGGLGGVGGGMG,0.654 ± 0.03
20,AKLDMARGGGVV,0.645 ± 0.018
21,LSYPPPPTQPPA,0.734 ± 0.0083
22,NKVLHPGGKPLT,0.6637 ± 0.0062
23,AERCCLHPPIPA,0.541 ± 0.033
24,VCCSQWPLGFSV,0.733 ± 0.068
25,LLPPSLLSPPPF,0.696 ± 0.094
26,HHPLGSPPVPPP,0.729 ± 0.039

row,Sequence,protein stability index
1,RPKVSRIKENKY,0.727 ± 0.02
2,ITEYKIKLKNKE,0.671 ± 0.023
3,FWEIRSGSNHRH,0.713 ± 0.028
4,FVAGVGPLWGRR,0.661 ± 0.031
5,GWNRVGDWGVCG,0.736 ± 0.01
6,SSLMGGLSAYPG,0.694 ± 0.011
7,PPISVIRKPTVL,0.667 ± 0.066
8,WGCVGVGGLFSG,0.665 ± 0.017
9,RSTTDVADNSRP,0.631 ± 0.032
10,PPLARLASPSRL,0.7006 ± 0.0036
11,FAFQAHWGCRDF,0.703 ± 0.053
12,PSPVLLPPFVSP,0.706 ± 0.0089
13,RPELRRETARVR,0.644 ± 0.038
14,QGRIVSVILLSL,0.557 ± 0.023
15,FWEGETVPTSEP,0.788 ± 0.045
16,SWKFAFWCFLGR,0.5675 ± 0.0056
17,FPRLYHPNIKLP,0.716 ± 0.13
18,RAKRPAGTSTRG,0.604 ± 0.016
19,SFGLGGSFFWVG,0.7 ± 0.035
20,LHLRPPHPPLPS,0.717 ± 0.015
21,SRERRPKVFILR,0.669 ± 0.027
22,EKPIPFCSSVAS,0.713 ± 0.063
23,TYSERADLCAQL,0.678 ± 0.016
24,PVDFQSQGECEL,0.695 ± 0.0089
25,YSSGKPMEITIA,0.678 ± 0.084
26,RVSLELEIIPPS,0.706 ± 0.05

row,Sequence,protein stability index
1,PYRPYLLPGSLA,0.632 ± 0.099
2,PLLPSPPLPCFF,0.765 ± 0.029
3,FRLQQGCSRHVG,0.671 ± 0.015
4,PAACLSLPPPPS,0.706 ± 0.031
5,GTWSVYSEKFVG,0.652 ± 0.0081
6,QQRVKTYHELHL,0.712 ± 0.013
7,ALHYEVVGRGYL,0.679 ± 0.036
8,IKKQTKTKKKEF,0.65 ± 0.058
9,PLPLPPPPHPSL,0.723 ± 0.041
10,RGWLSAWDENGK,0.704 ± 0.019
11,CYAVEACWASCA,0.597 ± 0.0087
12,YPIFSPFSLPAL,0.59 ± 0.0073
13,MIKINHRIKIKY,0.7115 ± 0.0039
14,RLRRLYSLRTYL,0.543 ± 0.033
15,GGGAGGEAVRVW,0.655 ± 0.025
16,LPPAPLLSLPSL,0.6921 ± 0.0034
17,TPLPLRFRCPYS,0.639 ± 0.04
18,SPHLPPLPDPSP,0.576 ± 0.0069
19,QYASPSISTLPV,0.726 ± 0.065
20,KGREKTKKKGTK,0.688 ± 0.011
21,VEFGIFACFTRP,0.6687 ± 0.0019
22,PRRPATTSIPTT,0.672 ± 0.038
23,NARGRGAGGAST,0.626 ± 0.048
24,KRGRGPQFCDLY,0.693 ± 0.045
25,ASGSLGQIFSGL,0.699 ± 0.026
26,ASLLSCRLPCLC,0.518 ± 0.026

row,Sequence,protein stability index
1,SDLDFSRLHGSA,0.698 ± 0.056
2,CMVRGCFNHCGW,0.669 ± 0.024
3,IRETTYSRPFQL,0.695 ± 0.05
4,NGGKDAVVLGGG,0.636 ± 0.054
5,NPARPRPPPRER,0.595 ± 0.057
6,PLPAPRHNALTT,0.6137 ± 0.0045
7,IRREETKRKRNL,0.755 ± 0.044
8,VGPVDPGDSDGL,0.699 ± 0.0065
9,PPLSLPSSCPSP,0.652 ± 0.1
10,CPPPTPPAPPLP,0.74 ± 0.033
11,GGGGGSRGVCLG,0.656 ± 0.063
12,YCGGRWGGWEIG,0.684 ± 0.0037
13,AVLKDFDTKHLY,0.613 ± 0.024
14,SPQPSLPFLPPL,0.668 ± 0.026
15,SCVLSYVASYAQ,0.66 ± 0.018
16,RARPGKATSAFH,0.73 ± 0.019
17,GKTRKGKKRKRK,0.666 ± 0.14
18,KKKKKKKTKKQK,0.696 ± 0.024
19,GRGERDIGVNQS,0.6792 ± 0.0031
20,PSSPPSLSPPLP,0.7177 ± 0.0034
21,AAPPPAPPPPPR,0.694 ± 0.0082
22,SRWFEFSFLSQV,0.707 ± 0.049
23,SLAGWPPPSIST,0.686 ± 0.013
24,GCSPTLMVSFIA,0.572 ± 0.037
25,SVVGNYHQTEPV,0.702 ± 0.059
26,KGTQINNRCKLK,0.684 ± 0.078

row,Sequence,protein stability index
1,YSGSPPFPLSRL,0.801 ± 0.027
2,AFLLAVIRSSCV,0.55 ± 0.031
3,SPSPLPTTPPTC,0.641 ± 0.0077
4,GLVLVGGGGGAV,0.577 ± 0.051
5,GVVGWWWVRGMG,0.756 ± 0.023
6,PPPLPPSSPTYS,0.646 ± 0.11
7,GRSHVGGCGGEG,0.693 ± 0.035
8,PPPRLSPTPSSR,0.721 ± 0.05
9,SRVTVLGGWRRG,0.701 ± 0.034
10,ILCPSPAPTSFP,0.6682 ± 0.0061
11,QSTGDFAVRQSF,0.753 ± 0.093
12,KNKKNKCNKVKK,0.726 ± 0.024
13,VGSGGGAPRVGR,0.647 ± 0.072
14,QKPKKKNTTEKQ,0.689 ± 0.021
15,AGHGTHSNSPFA,0.693 ± 0.074
16,FRRLCRPVWSAR,0.6749 ± 0.0038
17,MSGKIMVLQKEE,0.643 ± 0.013
18,SVAGGGSACRGC,0.646 ± 0.039
19,KKKKKIPKKAKR,0.666 ± 0.049
20,SWGGELGATSGG,0.708 ± 0.024
21,PIPPDPPAYQGQ,0.6426 ± 0.0064
22,EWGAGGGVWGLG,0.7684 ± 0.0069
23,CLCLCFLDYKAC,0.5731 ± 0.0051
24,GIGYVTPLSRVL,0.72 ± 0.038
25,WGRRWRCAGRGG,0.656 ± 0.056
26,FTPLFSPVLLLP,0.72 ± 0.12

row,Sequence,protein stability index
1,PPTIPLRTLPTS,0.703 ± 0.018
2,LTSPPRPAFVRV,0.636 ± 0.035
3,CTGDLSHVLFGI,0.725 ± 0.016
4,LRPCAGAVRPSA,0.724 ± 0.0099
5,PRHPPTHLIPKT,0.615 ± 0.034
6,SPPAPACTSYSL,0.7018 ± 0.0019
7,GGGRGRWGPEGE,0.6902 ± 0.0043
8,SVPSAWCWVSSS,0.6 ± 0.038
9,GGVSVVTRVAPR,0.658 ± 0.016
10,KRRNKTNREDTM,0.68 ± 0.052
11,LTAFFPFSTFFP,0.714 ± 0.042
12,GRCLSGRVVGGG,0.7145 ± 0.0014
13,HPPPFRLPPAPP,0.639 ± 0.0072
14,VACCKIRSGKSH,0.687 ± 0.056
15,GCSLWAVRTWGL,0.699 ± 0.01
16,LYFGVGSICLVS,0.649 ± 0.043
17,VSLPMAPPPLDG,0.616 ± 0.013
18,LPLRVPPPPSSH,0.743 ± 0.085
19,LVMQSVQDDPVF,0.692 ± 0.0081
20,PPAPPEPRIVRR,0.684 ± 0.076
